Results published in the supplement of paper PMC7125110.
± gives the standard error. Fewer inactive variants are shown than the library holds.

B1: glmS ribozyme (parent)
chain: AUAAAAGCGCCAGAACUACAGAAAUGUAGUUGACGAGGAGGAGGUUUAUCGAAUUUUCGGCGGAUGCCUCCAAA

How the values were obtained:
Settings in all cases: with glucosamine-6-phosphate
[1] = variants of: B1; assay: self-cleavage kobs at 40 uM GlcN6P; higher = faster cleavage; RNA array
Method in brief: (§1)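 Barcoded glmS ribozyme variants on sequenced MiSeq chips were transcribed in situ by E. coli RNA polymerase and tracked through a hybridised Cy3 probe at 37 °C. Glucosamine-6-phosphate (40 μM to 10 mM) in HEPES/KCl/Mg(OAc)2 buffer was flowed in, and tiles were imaged over ~14 h. Signals were normalised to baseline and to non-cleaving reference variants; per-tile medians were fit to one- or two-exponential decays to give kobs. kcat and KM came from weighted Michaelis–Menten fits across concentrations.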

[2] = variants of: B1; assay: self-cleavage kobs at 10000 uM GlcN6P; higher = faster cleavage; RNA array
Method in brief: as §1

[3] = variants of: B1; assay: self-cleavage kobs at 160 uM GlcN6P; higher = faster cleavage; RNA array
Method in brief: as §1

[4] = variants of: B1; assay: self-cleavage kobs at 640 uM GlcN6P; higher = faster cleavage; RNA array
Method in brief: as §1

[5] = variants of: B1; assay: self-cleavage kobs at 2500 uM GlcN6P; higher = faster cleavage; RNA array
Method in brief: as §1

Variant	self-cleavage kobs at 40 uM GlcN6P [1] [s⁻¹]	self-cleavage kobs at 10000 uM GlcN6P [2] [s⁻¹]	self-cleavage kobs at 160 uM GlcN6P [3] [s⁻¹]	self-cleavage kobs at 640 uM GlcN6P [4] [s⁻¹]	self-cleavage kobs at 2500 uM GlcN6P [5] [s⁻¹]
A14U G41C G43A G63U C67A C70A	< 1e-05	< 1e-05			
G13U A36U	< 1e-05	< 1e-05	< 1e-05	< 1e-05	< 1e-05
A15G G29A	0.000133 ± 3.8e-05	0.0196 ± 0.0068	0.000309 ± 8.6e-05	0.00108 ± 0.00019	0.00164 ± 0.00031
A14U A33U C34G G35C U69A	3.35e-05 ± 1e-05	7.09e-05 ± 1.3e-05			
G13U A36G G62U G66U C70A	< 1e-05				
G13C G41U C70U	< 1e-05				
A12U C50G G51C	< 1e-05				
A15G A52G C58G	< 1e-05	8.04e-05 ± 2.1e-05			
A15C G32U G60U	< 1e-05	< 1e-05			
A15C G37U	< 1e-05	< 1e-05		< 1e-05	
A14U C16U	0.00025 ± 3.2e-05	0.00789 ± 0.001	0.000555 ± 0.00011	0.00297 ± 0.00042	0.00183 ± 0.0004
A12U C70A	8.79e-05 ± 1.1e-05	0.00179 ± 0.00036	0.000177 ± 2.9e-05	0.00047 ± 5.2e-05	0.00049 ± 7e-05
A14U G43C U69A	< 1e-05	< 1e-05			
A12U U30G G51C	< 1e-05			< 1e-05	< 1e-05
A14U G38A U45G G63C	< 1e-05				
A14G G66A	0.000901 ± 0.00011	0.0634 ± 0.015	0.00369 ± 0.0009	0.00997 ± 0.0018	0.0046 ± 0.001
G13C A33G A48C	< 1e-05				< 1e-05
A12U G41A G44C U55G	< 1e-05	< 1e-05			
G13A A14U C50G C68U	8.53e-05 ± 1.7e-05	0.000103 ± 1.5e-05		0.000187 ± 4.7e-05	0.000455 ± 0.00016
G13U G32A C50U	< 1e-05	< 1e-05			< 1e-05
G13U A52U C70G	< 1e-05				
A12U A15U A42G	0.000666 ± 0.00019			0.00157 ± 0.00069	0.00849 ± 0.0038
A15C U30G	0.00258 ± 0.00062	0.153 ± 0.058	0.00591 ± 0.0015	0.0305 ± 0.0089	0.0288 ± 0.011

Variant	self-cleavage kobs at 40 uM GlcN6P [1] [s⁻¹]	self-cleavage kobs at 10000 uM GlcN6P [2] [s⁻¹]	self-cleavage kobs at 160 uM GlcN6P [3] [s⁻¹]	self-cleavage kobs at 640 uM GlcN6P [4] [s⁻¹]	self-cleavage kobs at 2500 uM GlcN6P [5] [s⁻¹]
G13A C50G C58A C70U	6.62e-05 ± 1.6e-05	9.7e-05 ± 2.5e-05			0.000539 ± 6.7e-05
A12U A64G	0.000953 ± 0.00018	0.052 ± 0.015	0.0025 ± 0.00063	0.00536 ± 0.0011	0.0169 ± 0.0043
A12G G40C G43C	< 1e-05	< 1e-05		< 1e-05	
A14U C16U G29U C50A G62U	< 1e-05				
A14C G38C G44A G63U C70G	< 1e-05				
A14G A36U A48U	< 1e-05				
A15C G62A	< 1e-05	< 1e-05	< 1e-05	< 1e-05	< 1e-05
G13U U31A A39C C68U U69A	< 1e-05		< 1e-05	< 1e-05	
G13U G35U G63C A64U	< 1e-05				
A14G A53U C71G	0.000153 ± 2.4e-05			0.000741 ± 0.00014	0.00038 ± 0.0001
A14U U45G G62C	< 1e-05	< 1e-05			
G13C G43U A52U	< 1e-05	< 1e-05		< 1e-05	< 1e-05
G13C C50G G63A C70G	0.000201 ± 7.2e-05	0.000144 ± 4.2e-05			
A14U C16G G32U G44A A48C C61U U69G	< 1e-05				
A14U G35U G44C	< 1e-05	< 1e-05	< 1e-05	< 1e-05	< 1e-05
A12G C34G G38C A39C A42U G60C C71U	< 1e-05				
G13U C16U C19A G40U	< 1e-05	< 1e-05	< 1e-05	< 1e-05	
G13U G59U	< 1e-05	< 1e-05	< 1e-05	< 1e-05	
A14C C50G C68A	4.86e-05 ± 1.6e-05	0.000123 ± 2.5e-05			
G13C C16U G63A	< 1e-05				
G13A G63A	< 1e-05	< 1e-05	< 1e-05		
G13A C16G A64U	< 1e-05				
A14G C70G	9.61e-05 ± 1.2e-05		0.000203 ± 1.9e-05	0.000614 ± 0.00013	0.0009 ± 0.00022
